Results from patent US20260167699A1 (Chugai, published 2026).

Experiments:
Assay in all cases: SPR, relative to GpH7-A5/GpH7-B3/GpL16-k0 =100
[1] = target: T1, FcγRIIb (human, UniProt P31994 43-217)
T1 construct: extracellular domain; also called 2b
T1 sequence: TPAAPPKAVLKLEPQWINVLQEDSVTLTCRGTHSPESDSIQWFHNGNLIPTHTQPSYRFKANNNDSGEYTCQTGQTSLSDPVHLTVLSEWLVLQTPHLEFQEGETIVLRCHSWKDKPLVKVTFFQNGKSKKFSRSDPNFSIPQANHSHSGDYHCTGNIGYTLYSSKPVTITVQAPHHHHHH

[2] = target: T2, FcγRIIa(H) (human, UniProt P12318 34-217)
T2 construct: extracellular domain; also called 2aH
T2 sequence: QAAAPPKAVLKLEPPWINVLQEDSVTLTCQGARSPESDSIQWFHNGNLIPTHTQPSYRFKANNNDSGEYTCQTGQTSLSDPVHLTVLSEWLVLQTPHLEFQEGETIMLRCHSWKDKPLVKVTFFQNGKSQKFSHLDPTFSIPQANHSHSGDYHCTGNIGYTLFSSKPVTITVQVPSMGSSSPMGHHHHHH

[3] = target: T3, FcγRIa (human, UniProt P12314 16-292)
T3 construct: extracellular domain; also called 1a
T3 sequence (P12314 other isoform, or with tags, fused parts or gaps): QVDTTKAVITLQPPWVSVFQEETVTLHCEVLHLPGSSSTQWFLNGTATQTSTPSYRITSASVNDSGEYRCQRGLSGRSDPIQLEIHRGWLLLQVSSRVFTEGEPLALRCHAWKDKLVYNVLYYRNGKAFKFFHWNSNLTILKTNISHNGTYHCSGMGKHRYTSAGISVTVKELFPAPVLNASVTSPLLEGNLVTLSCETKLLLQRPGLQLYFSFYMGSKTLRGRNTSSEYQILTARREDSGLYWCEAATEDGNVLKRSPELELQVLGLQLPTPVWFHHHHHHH

[4] = target: T4, FcγRIIa(R) (human, UniProt P12318 34-217)
T4 construct: extracellular domain; also called 2aR
T4 sequence: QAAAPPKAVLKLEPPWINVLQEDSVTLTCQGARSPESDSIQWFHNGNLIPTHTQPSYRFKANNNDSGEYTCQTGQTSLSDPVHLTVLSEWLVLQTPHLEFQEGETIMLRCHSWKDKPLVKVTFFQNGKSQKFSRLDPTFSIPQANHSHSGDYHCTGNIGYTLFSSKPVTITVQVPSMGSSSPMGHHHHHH

B1: GpH7-A5/GpH7-B3 variant K326_03V/GpL16-k0 (antibody, human IgG1, kappa)
heavy 1: not shown
heavy 2: not shown
light: DIVMTQSPLSLPVTPGEPASISCQASESLVHSNRNTYLHWYLQKPGQSPQLLIYKVSNRFSGVPDRFSGSGSGTDFTLKISRVEAEDVGVYYCSQNTHVPPTFGQGTKVEIERTVAAPSVFIFPPSDEQLKSGTASVVCLLNNFYPREAKVQWKVDNALQSGNSQESVTEQDSKDSTYSLSSTLTLSKADYEKHKVYACEVTHQGLSSPVTKSFNRGEC
notes: He Ab: heterodimerized IgG1, one H chain mutated
- He/Con 2b [1]: 196%
- He/Con 2aH [2]: 101%
- He/Con 1a [3]: 107%
- He/Con 2aR [4]: 135%

B2: GpH7-A5/GpH7-B3 variant K326_05P/GpL16-k0 (antibody, human IgG1, kappa)
heavy 1: not shown
heavy 2: not shown
light: DIVMTQSPLSLPVTPGEPASISCQASESLVHSNRNTYLHWYLQKPGQSPQLLIYKVSNRFSGVPDRFSGSGSGTDFTLKISRVEAEDVGVYYCSQNTHVPPTFGQGTKVEIERTVAAPSVFIFPPSDEQLKSGTASVVCLLNNFYPREAKVQWKVDNALQSGNSQESVTEQDSKDSTYSLSSTLTLSKADYEKHKVYACEVTHQGLSSPVTKSFNRGEC
notes: as for B1
- He/Con 2b [1]: 141%
- He/Con 2aH [2]: 103%
- He/Con 1a [3]: 106%
- He/Con 2aR [4]: 118%

B3: GpH7-A5/GpH7-B3 variant K326_08L/GpL16-k0 (antibody, human IgG1, kappa)
heavy 1: not shown
heavy 2: not shown
light: DIVMTQSPLSLPVTPGEPASISCQASESLVHSNRNTYLHWYLQKPGQSPQLLIYKVSNRFSGVPDRFSGSGSGTDFTLKISRVEAEDVGVYYCSQNTHVPPTFGQGTKVEIERTVAAPSVFIFPPSDEQLKSGTASVVCLLNNFYPREAKVQWKVDNALQSGNSQESVTEQDSKDSTYSLSSTLTLSKADYEKHKVYACEVTHQGLSSPVTKSFNRGEC
notes: as for B1
- He/Con 2b [1]: 198%
- He/Con 2aH [2]: 96.5%
- He/Con 1a [3]: 105%
- He/Con 2aR [4]: 131%

B4: GpH7-A5/GpH7-B3 variant K326_15Y/GpL16-k0 (antibody, human IgG1, kappa)
heavy 1: not shown
heavy 2: not shown
light: DIVMTQSPLSLPVTPGEPASISCQASESLVHSNRNTYLHWYLQKPGQSPQLLIYKVSNRFSGVPDRFSGSGSGTDFTLKISRVEAEDVGVYYCSQNTHVPPTFGQGTKVEIERTVAAPSVFIFPPSDEQLKSGTASVVCLLNNFYPREAKVQWKVDNALQSGNSQESVTEQDSKDSTYSLSSTLTLSKADYEKHKVYACEVTHQGLSSPVTKSFNRGEC
notes: as for B1
- He/Con 2b [1]: 179%
- He/Con 2aH [2]: 102%
- He/Con 1a [3]: 111%
- He/Con 2aR [4]: 131%

B5: GpH7-A5/GpH7-B3 variant K326_10E/GpL16-k0 (antibody, human IgG1, kappa)
heavy 1: not shown
heavy 2: not shown
light: DIVMTQSPLSLPVTPGEPASISCQASESLVHSNRNTYLHWYLQKPGQSPQLLIYKVSNRFSGVPDRFSGSGSGTDFTLKISRVEAEDVGVYYCSQNTHVPPTFGQGTKVEIERTVAAPSVFIFPPSDEQLKSGTASVVCLLNNFYPREAKVQWKVDNALQSGNSQESVTEQDSKDSTYSLSSTLTLSKADYEKHKVYACEVTHQGLSSPVTKSFNRGEC
notes: as for B1
- He/Con 2b [1]: 224%
- He/Con 2aH [2]: 106%
- He/Con 1a [3]: 109%
- He/Con 2aR [4]: 142%

B6: GpH7-A5/GpH7-B3 variant K326_12R/GpL16-k0 (antibody, human IgG1, kappa)
heavy 1: not shown
heavy 2: not shown
light: DIVMTQSPLSLPVTPGEPASISCQASESLVHSNRNTYLHWYLQKPGQSPQLLIYKVSNRFSGVPDRFSGSGSGTDFTLKISRVEAEDVGVYYCSQNTHVPPTFGQGTKVEIERTVAAPSVFIFPPSDEQLKSGTASVVCLLNNFYPREAKVQWKVDNALQSGNSQESVTEQDSKDSTYSLSSTLTLSKADYEKHKVYACEVTHQGLSSPVTKSFNRGEC
notes: as for B1
- He/Con 2b [1]: 100%
- He/Con 2aH [2]: 105%
- He/Con 1a [3]: 105%
- He/Con 2aR [4]: 98.6%

B7: GpH7-A5/GpH7-B3 variant K326_13S/GpL16-k0 (antibody, human IgG1, kappa)
heavy 1: not shown
heavy 2: not shown
light: DIVMTQSPLSLPVTPGEPASISCQASESLVHSNRNTYLHWYLQKPGQSPQLLIYKVSNRFSGVPDRFSGSGSGTDFTLKISRVEAEDVGVYYCSQNTHVPPTFGQGTKVEIERTVAAPSVFIFPPSDEQLKSGTASVVCLLNNFYPREAKVQWKVDNALQSGNSQESVTEQDSKDSTYSLSSTLTLSKADYEKHKVYACEVTHQGLSSPVTKSFNRGEC
notes: as for B1
- He/Con 2b [1]: 139%
- He/Con 2aH [2]: 110%
- He/Con 1a [3]: 106%
- He/Con 2aR [4]: 119%

B8: GpH7-A5/GpH7-B3 variant K326_06M/GpL16-k0 (antibody, human IgG1, kappa)
heavy 1: not shown
heavy 2: not shown
light: DIVMTQSPLSLPVTPGEPASISCQASESLVHSNRNTYLHWYLQKPGQSPQLLIYKVSNRFSGVPDRFSGSGSGTDFTLKISRVEAEDVGVYYCSQNTHVPPTFGQGTKVEIERTVAAPSVFIFPPSDEQLKSGTASVVCLLNNFYPREAKVQWKVDNALQSGNSQESVTEQDSKDSTYSLSSTLTLSKADYEKHKVYACEVTHQGLSSPVTKSFNRGEC
notes: as for B1
- He/Con 2b [1]: 185%
- He/Con 2aH [2]: 108%
- He/Con 1a [3]: 108%
- He/Con 2aR [4]: 132%

B9: GpH7-A5/GpH7-B3 variant K326_14T/GpL16-k0 (antibody, human IgG1, kappa)
heavy 1: not shown
heavy 2: not shown
light: DIVMTQSPLSLPVTPGEPASISCQASESLVHSNRNTYLHWYLQKPGQSPQLLIYKVSNRFSGVPDRFSGSGSGTDFTLKISRVEAEDVGVYYCSQNTHVPPTFGQGTKVEIERTVAAPSVFIFPPSDEQLKSGTASVVCLLNNFYPREAKVQWKVDNALQSGNSQESVTEQDSKDSTYSLSSTLTLSKADYEKHKVYACEVTHQGLSSPVTKSFNRGEC
notes: as for B1
- He/Con 2b [1]: 168%
- He/Con 2aH [2]: 119%
- He/Con 1a [3]: 109%
- He/Con 2aR [4]: 128%

B10: GpH7-A5/GpH7-B3 variant K326_16H/GpL16-k0 (antibody, human IgG1, kappa)
heavy 1: not shown
heavy 2: not shown
light: DIVMTQSPLSLPVTPGEPASISCQASESLVHSNRNTYLHWYLQKPGQSPQLLIYKVSNRFSGVPDRFSGSGSGTDFTLKISRVEAEDVGVYYCSQNTHVPPTFGQGTKVEIERTVAAPSVFIFPPSDEQLKSGTASVVCLLNNFYPREAKVQWKVDNALQSGNSQESVTEQDSKDSTYSLSSTLTLSKADYEKHKVYACEVTHQGLSSPVTKSFNRGEC
notes: as for B1
- He/Con 2b [1]: 133%
- He/Con 2aH [2]: 102%
- He/Con 1a [3]: 109%
- He/Con 2aR [4]: 115%

B11: GpH7-A5/GpH7-B3 variant K326_19Q/GpL16-k0 (antibody, human IgG1, kappa)
heavy 1: not shown
heavy 2: not shown
light: DIVMTQSPLSLPVTPGEPASISCQASESLVHSNRNTYLHWYLQKPGQSPQLLIYKVSNRFSGVPDRFSGSGSGTDFTLKISRVEAEDVGVYYCSQNTHVPPTFGQGTKVEIERTVAAPSVFIFPPSDEQLKSGTASVVCLLNNFYPREAKVQWKVDNALQSGNSQESVTEQDSKDSTYSLSSTLTLSKADYEKHKVYACEVTHQGLSSPVTKSFNRGEC
notes: as for B1
- He/Con 2b [1]: 156%
- He/Con 2aH [2]: 106%
- He/Con 1a [3]: 108%
- He/Con 2aR [4]: 124%

B12: GpH7-A5/GpH7-B3 variant K326_09D/GpL16-k0 (antibody, human IgG1, kappa)
heavy 1: not shown
heavy 2: not shown
light: DIVMTQSPLSLPVTPGEPASISCQASESLVHSNRNTYLHWYLQKPGQSPQLLIYKVSNRFSGVPDRFSGSGSGTDFTLKISRVEAEDVGVYYCSQNTHVPPTFGQGTKVEIERTVAAPSVFIFPPSDEQLKSGTASVVCLLNNFYPREAKVQWKVDNALQSGNSQESVTEQDSKDSTYSLSSTLTLSKADYEKHKVYACEVTHQGLSSPVTKSFNRGEC
notes: as for B1
- He/Con 2b [1]: 216%
- He/Con 2aH [2]: 115%
- He/Con 1a [3]: 109%
- He/Con 2aR [4]: 142%

B13: GpH7-A5/GpH7-B3 variant K326_07I/GpL16-k0 (antibody, human IgG1, kappa)
heavy 1: not shown
heavy 2: not shown
light: DIVMTQSPLSLPVTPGEPASISCQASESLVHSNRNTYLHWYLQKPGQSPQLLIYKVSNRFSGVPDRFSGSGSGTDFTLKISRVEAEDVGVYYCSQNTHVPPTFGQGTKVEIERTVAAPSVFIFPPSDEQLKSGTASVVCLLNNFYPREAKVQWKVDNALQSGNSQESVTEQDSKDSTYSLSSTLTLSKADYEKHKVYACEVTHQGLSSPVTKSFNRGEC
notes: as for B1
- He/Con 2b [1]: 223%
- He/Con 2aH [2]: 104%
- He/Con 1a [3]: 106%
- He/Con 2aR [4]: 141%

B14: GpH7-A5/GpH7-B3 variant K326_18N/GpL16-k0 (antibody, human IgG1, kappa)
heavy 1: not shown
heavy 2: not shown
light: DIVMTQSPLSLPVTPGEPASISCQASESLVHSNRNTYLHWYLQKPGQSPQLLIYKVSNRFSGVPDRFSGSGSGTDFTLKISRVEAEDVGVYYCSQNTHVPPTFGQGTKVEIERTVAAPSVFIFPPSDEQLKSGTASVVCLLNNFYPREAKVQWKVDNALQSGNSQESVTEQDSKDSTYSLSSTLTLSKADYEKHKVYACEVTHQGLSSPVTKSFNRGEC
notes: as for B1
- He/Con 2b [1]: 118%
- He/Con 2aH [2]: 113%
- He/Con 1a [3]: 110%
- He/Con 2aR [4]: 110%

B15: GpH7-A5/GpH7-B3 variant K326_04F/GpL16-k0 (antibody, human IgG1, kappa)
heavy 1: not shown
heavy 2: not shown
light: DIVMTQSPLSLPVTPGEPASISCQASESLVHSNRNTYLHWYLQKPGQSPQLLIYKVSNRFSGVPDRFSGSGSGTDFTLKISRVEAEDVGVYYCSQNTHVPPTFGQGTKVEIERTVAAPSVFIFPPSDEQLKSGTASVVCLLNNFYPREAKVQWKVDNALQSGNSQESVTEQDSKDSTYSLSSTLTLSKADYEKHKVYACEVTHQGLSSPVTKSFNRGEC
notes: as for B1
- He/Con 2b [1]: 174%
- He/Con 2aH [2]: 101%
- He/Con 1a [3]: 107%
- He/Con 2aR [4]: 129%
